Measurements taken from EP4703474A1, “ANTI-LRRC15 ANTIBODY” (priority 2023, dated 2024).
Residue numbers refer to the chain shown, from its start.

B1: H02L01-PBD (conjugate)
heavy: EVQLVESGGGLVQPGGSLRLSCAASGFTFRDYYMAWVRQAPGKGLEWVSSIGFDESRTYYADSVKGRFTISRDDSKNTLYLQMNSLRAEDTAVYYCARHGVSYYSGDNWFAYWGQGTLVTVSSASTKGPSVFPLAPSSKSTSGGTAALGCLVKDYFPEPVTVSWNSGALTSGVHTFPAVLQSSGLYSLSSVVTVPSSSLGTQTYICNVNHKPSNTKVDKKVEPKSCDKTHTCPPCPAPEAAGGPSVFLFPPKPKDTLMISRTPEVTCVVVDVSHEDPEVKFNWYVDGVEVHNAKTKPREEQYNSTYRVVSVLTVLHQDWLNGKEYKCKVSNKALAAPIEKTISKAKGQPREPQVYTLPPSREEMTKNQVSLTCLVKGFYPSDIAVEWESNGQPENNYKTTPPVLDSDGSFFLYSKLTVDKSRWQQGNVFSCSVMHEALHNHYTQKSLSLSPGK
light: DIQMTQSPSSLSASVGDRVTITCKSSQGLLYSGDQKNYLAWYQQKPGKAPKLLIYWASTRQSGVPSRFSGSGSGTDFTLTISSLQPEDFATYYCQQYYDPPYTFGQGTKVEIKRTVAAPSVFIFPPSDEQLKSGTASVVCLLNNFYPREAKVQWKVDNALQSGNSQESVTEQDSKDSTYSLSSTLTLSKADYEKHKVYACEVTHQGLSSPVTKSFNRGEC
B2: H02L01-V1-PBD (conjugate)
heavy: B1 heavy with Y103K
light: B1 light

Tests used:
[1] = system: LRRC15-positive human glioblastoma cell line U118MG; assay: In vivo antitumor effect, U118MG subcutaneous transplant model; conditions: 0.4 mg/kg, tail vein, on Day 17, female SCID mice
Method: (§1) The antitumor effects of the antibody-drug conjugates were evaluated by using animal models in which cells of a human tumor cell line had been transplanted into immunodeficient mice, or cells of a mouse tumor cell line had been transplanted into immunocompetent mice. 4 to 6 Week-old SCID mice (CB17/Icr-Prkdc[scid]/CrlCrlj, Jackson Laboratory Japan, Inc.), NSG mice (NOD.Cg-Prkdcscid Il2rgtm1Wjl/SzJ, Jackson Laboratory Japan, Inc.), or B6J mice (C57BL/6J, Jackson Laboratory Japan, Inc.) were habituated for 3 days or more under SPF conditions before experimental use. The mice were fed with sterilized solid feed and given sterilized tap water. The major and minor diameters of the transplanted tumors were measured twice a week with an electronic digital caliper (Mitutoyo Corporation), and the estimated tumor volume was calculated using the following formula. Estimated tumor volume (mm^3) = 1/2 × major diameter (mm) × [minor diameter (mm)]^2 All antibody-drug conjugates were diluted with ABS and administered into the tail vein at doses shown in each Example. In addition, ABS (vehicle) or control hIgG-PBD prepared in Reference Example 4 was administered as the control group, in a similar manner. 5 to 6 Mice were used per group in the experiment. […]

[2] = system: LRRC15-negative human lung carcinoma cell line HCC827; assay: In vivo antitumor effect, HCC827 subcutaneous transplant model; conditions: 0.4 mg/kg, tail vein, on Day 10, female SCID mice, huM25-MMAE at 0.4 mg/kg or 3.6 mg/kg
Method: as §1, with “of the” for “of a”, “immunodeficient” for “immunodeficient mice, or cells of a mouse tumor cell line had been transplanted into immunocompetent”, “(CB17/Icr-Prkdc[scid]/CrlCrlj,” for “(CB17/Icr-Prkdc[scid]/CrlCrlj, Jackson Laboratory Japan, Inc.), NSG mice (NOD.Cg-Prkdcscid Il2rgtm1Wjl/SzJ, Jackson Laboratory Japan, Inc.), or B6J mice (C57BL/6J,”, “feed (FR-2, Funabashi Farms Co., Ltd.)” for “feed”, “tap water (prepared by adding a solution of 5 to 15 ppm sodium hypochlorite).” for “tap water.”, “caliper ([…]” for “caliper (Mitutoyo”

[3] = system: Mouse colorectal carcinoma cell line CMT93; assay: In vivo antitumor effect, CMT93 subcutaneous transplant model; conditions: 0.4 mg/kg, tail vein, on Day 7, male B6J mice
Method: as §1, with “experiment. To analyze the LRRC15 expression in mouse tumor models, immunohistochemical staining of LRRC15 was performed.” for “experiment.”

| Molecule | antitumor effect (estimated tumor volume) [1] | antitumor effect (estimated tumor volume) [2] | antitumor effect (estimated tumor volume) [3] |
| --- | --- | --- | --- |
| B1 | antitumor activity higher than that of the vehicle and the control hIgG-PBD | antitumor activity higher than that of the vehicle, the control hIgG-PBD, and huM25-MMAE | antitumor activity higher than that of the vehicle and the control hIgG-PBD |
| B2 | antitumor activity higher than that of the vehicle and the control hIgG-PBD | antitumor activity higher than that of the vehicle, the control hIgG-PBD, and huM25-MMAE | antitumor activity higher than that of the vehicle and the control hIgG-PBD |
